This is an account of results in US20030027180, “Nucleic acid shuffling” (published 2003).

For series [1], the target named is T1, streptavidin (UniProt P22629 P22629:25-183). The series is described as follows: filter; no streptavidin affinity. Particulars: tags: Sigma; chain copies: 4. On the procedure: (§1) Binding affinity assays: Affinities for streptavidin were measured using a radioactive filter binding assay. Pools or individual clones were amplified by PCR. One pmol was radiolabeled with 15 units T4 PNK and 10 μCi γ-³²P ATP (NEN) in T4 PNK buffer at 37° C., 1 h. Labeled DNA was extracted twice with phenol-chloroform and purified twice by gel filtration to remove ATP. The DNA was then denatured in water at 95° C. for 5 min together with 2 μg human genomic DNA (to block nonspecific DNA binding) per 5 fmol labeled DNA, and chilled in ice water for 5 mins. 5 fmol of labeled DNA plus 2 μg unlabeled human genomic DNA was added to varying amounts of streptavidin (0 to 1024 nM) in 50 μL of 100 mM NaCl, 50 mM Tris-Cl pH 8.0, 5 mM MgCl₂ (“assay buffer”), giving a final concentration of labeled DNA of 0.1 nM. The DNA and streptavidin were incubated at room temperature for 30 minutes. A multiscreen-HA 96 well nitrocellulose filter plate (Millipore), which retains protein-DNA complexes much better than free DNA, was pre-washed with 125 μL assay buffer then loaded with each assay sample. The samples were rapidly filtered on a vacuum manifold and the membranes washed twice with 250 uL of assay buffer. The membrane for each well was punched out from the plate using a stylus and the bound radioactive label quantitated by phosphorimager together with 1 fmol of unreacted probe.

Series [2] has as its target T1, streptavidin. The series is described as follows: filter; affinity comparable to error-prone PCR evolved sequences; no own Kd printed. Particulars: tags: Sigma; chain copies: 4; stem-loop predicted by Mfold. On the procedure: as §1
The target in series [3] is T1, streptavidin. Briefly: filter; 100 mM NaCl, 50 mM Tris pH 8.0, 5 mM MgCl2, room temperature, human genomic DNA competitor. Particulars: tags: Sigma; chain copies: 4; label: 5'-32P. On the procedure: as §1

T1 sequence (P22629 25-183, one chain of several): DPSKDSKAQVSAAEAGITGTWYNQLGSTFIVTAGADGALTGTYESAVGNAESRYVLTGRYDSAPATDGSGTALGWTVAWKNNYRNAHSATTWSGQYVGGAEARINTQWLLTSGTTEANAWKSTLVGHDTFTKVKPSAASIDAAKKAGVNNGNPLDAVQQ

Consider CTGTGAGACAAAACCTGCGACCGGTGCGTCGTCTCACAGA (ssDNA) [complement strand of minimal 40-mer], for which the binding result with streptavidin [1] is reported as “no binding”.
With TCTGTGAGACGACGCACCGGTCGCAGGTTTTGTCTCACAG (ssDNA) [minimal 40-mer], the binding result with streptavidin [2] is on record as “binds”.

B1: 13x16 #1 (ssDNA)
DNA: GAAAACTGCTCATATGATTGATTAGCCCGCTGCTCGTCCAAATGACGGCTCAGCTCTGTATTTTTAGCGTCTGTGAGACAGAACCTGCGACCGGTGCGTCGTCTCACAGTCTACTGTATCTTCGCGTACCTTAGGTTTACCCGCTGCTCGTCCAAATGACGGCTCTCTGTGAGACAAAACCTGCGACCGGTGCGTCGTCTCACAGTAAGAGGGTTCTTGGATA
B1: the Kd (as a rule, the constant that tells how readily two partners part at equilibrium) with streptavidin [3] came to 4.7 nM.
